Biological target: Δ41-52 hPRL (human prolactin with residues 41-52 removed) (human) (UniProt P01236)
Assay: mass spectrometry

stoichiometry N: 2
Substance: Δ41-52 hPRL (human prolactin with residues 41-52 removed) (from UniProt P01236 29-227) (ligand)
